Measurements published in article PMC4121141, “Structural Basis for TatA Oligomerization: An NMR Study of Escherichia coli TatA Dimeric Structure” (PLoS ONE, 2014).
Where no end group is shown, it is not given here. The star is where a group is joined. MTSL = 1-oxy-2,2,5,5-tetramethyl-D-pyrroline-3-methyl methanethiosulfonate spin label, CC1(C)C=C(CS*)C(C)(C)N1[O]

B1: Escherichia coli TatA, wild type, full length (natural protein, UniProt P69428 1-89, looked up)
chain: MGGISIWQLLIIAVIVVLLFGTKKLGSIGSDLGASIKGFKKAMSDDEPKQDKTSQDADFTAKTIADKQADTNQEQAKTEDAKRHDKEQV
notes: TatA, Escherichia coli, 89 amino acids, one transmembrane helix (Ile6-Phe20) and one amphipathic helix (Lys24-Met43); 15N- or 13C/15N-labelled for NMR; also called wt-TatA; wild-type TatA; source: in C12E9 with Superdex 200 gel filtration for blue-native PAGE
B2: TatA_(1–55), truncated E. coli TatA (residues Met1-Gln55) (domain or fragment, Escherichia coli, UniProt P69428 1-55, looked up)
chain: MGGISIWQLLIIAVIVVLLFGTKKLGSIGSDLGASIKGFKKAMSDDEPKQDKTSQ
notes: TatA, Escherichia coli, residues Met1-Gln55; the unstructured C-terminal region removed; 15N-labelled in the relaxation and PRE experiments; source: purified in DPC
B3: TatA_(1–55)-I11C-MTSL (domain or fragment, Escherichia coli, UniProt P69428 1-55, looked up)
chain: MGGISIWQLLC(MTSL)IAVIVVLLFGTKKLGSIGSDLGASIKGFKKAMSDDEPKQDKTSQ
notes: TatA, Escherichia coli, residues Met1-Gln55 with Ile11 mutated to cysteine; source: purified in DPC, unlabeled, tagged with MTSL
B4: TatA_(1–55)-I12C-MTSL (domain or fragment, Escherichia coli, UniProt P69428 1-55, looked up)
chain: MGGISIWQLLIC(MTSL)AVIVVLLFGTKKLGSIGSDLGASIKGFKKAMSDDEPKQDKTSQ
notes: TatA, Escherichia coli, residues Met1-Gln55 with Ile12 mutated to cysteine; source: purified in DPC, unlabeled, tagged with MTSL
B5: MCG-TatA (wild-type E. coli TatA extended at the N-terminus by Met-Cys-Gly) (natural protein, Escherichia coli)
chain: MCGMGGISIWQLLIIAVIVVLLFGTKKLGSIGSDLGASIKGFKKAMSDDEPKQDKTSQDADFTAKTIADKQADTNQEQAKTEDAKRHDKEQV
notes: three additional amino acids Met-Cys-Gly at the N-terminus, numbered M(-3)C(-2)G(-1); TatA, Escherichia coli, wild type, 89 amino acids, Met1 kept after the extension; The single chain of the disulphide-linked dimer d-MCG-TatA; It is used here for the subunit-to-subunit rows of the dimer structure and of the cross-link; source: in C12E9 with Superdex 200 gel filtration for blue-native PAGE; …

Experiments:
[1] = biological target: the molecule itself; test: NMR 1H-15N HSQC at decreasing detergent-to-protein ratio; full-length TatA in DPC micelles, 50 mM sodium phosphate pH 7.0, 35°C; DPR lowered from >200; new sets of cross peaks appear
[2] = biological target: the molecule itself; test: NMR backbone 15N relaxation (R2/R1); TatA_(1–55) in DPC micelles, DPR ~70, two sets of peaks in the HSQC, 800 MHz, 35°C; monomer to dimer
[3] = biological target: B2; test: NMR intermolecular paramagnetic relaxation enhancement (PRE); unlabeled MTSL-tagged TatA_(1–55) cysteine mutant mixed at equal molar ratio with 15N-labeled TatA_(1–55) in DPC, 50 mM sodium phosphate pH 7.0, final DPR 40; reference spectrum after reduction with ascorbic acid; conditions: both partners purified
[4] = biological target: the molecule itself; test: solution NMR structure (intermolecular NOEs); disulphide-linked d-MCG-TatA of mixed unlabeled and 13C/15N-labeled MCG-TatA (2:1) in dDPC micelles, DPR about 80, 35°C; 13C/15N-filtered NOESY; 139 inter-subunit NOE restraints; Xplor-NIH

Binder: B1
binding result [1]: binds

Binder: B2
stoichiometry N [2]: 2

Binder: B3
binding result [3]: binds

Binder: B4
stoichiometry N [3]: 2

Binder: B5
binding result [4]: binds
